Values quoted from earlier work in PMC3121883.
pKd: −log10 of the molar value. Read-outs that look alike come from different tables or passages of the source.

Assays:
[1] = molecular target: Connexin43 C-terminal peptide (UniProt P17302); experiment: fluorescence
[2] = molecular target: Connexin43 C-terminal peptide (UniProt P17302); experiment: fluorescence; remark: listed apart in the source

UniProt P17302, sequence (P17302 whole entry, looked up, tested part not stated): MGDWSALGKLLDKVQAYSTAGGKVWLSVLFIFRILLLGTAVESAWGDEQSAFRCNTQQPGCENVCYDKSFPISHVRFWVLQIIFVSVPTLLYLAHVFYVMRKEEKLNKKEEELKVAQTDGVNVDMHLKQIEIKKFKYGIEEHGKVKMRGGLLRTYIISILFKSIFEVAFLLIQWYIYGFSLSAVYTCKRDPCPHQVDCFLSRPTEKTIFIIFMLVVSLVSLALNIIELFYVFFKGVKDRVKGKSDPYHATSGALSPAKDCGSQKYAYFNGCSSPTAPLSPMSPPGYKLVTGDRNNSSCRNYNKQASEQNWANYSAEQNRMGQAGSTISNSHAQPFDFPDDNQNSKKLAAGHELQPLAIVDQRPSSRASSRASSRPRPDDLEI

ZO-1 PDZ2 (from UniProt Q07157)
pKd [1]: 5.14
pKd [2]: < 4.00
